B1: ZNF263 (parent)
chain: RTHTGEKPYKCTLCGENFSHRSNL

Variants of: B1
Test: protein stability index of a GFP-peptide fusion (GPS, HEK-293T) (PSI 1-6); higher = more stable
Settings: c terminus: a fixed tail appended
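Further: lentivirally expressed fusions sorted by FACS into six bins by GFP to DsRed ratio, PSI derived from sequencing read proportions per bin multiplied by bin number.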

In order of falling protein stability index:
1. RTHTGEKPYKCTLCGENCSHRSNL [F18C]  3.74
2. RTHTGEKPYKCTLCGENFIHRSNL [S19I]  2.81
3. RTHTGEKPYKCTLCGENHSHRSNL [F18H]  2.76
4. RTHTGEKPYKCTLCGTNFSHRSNL [E16T]  2.51
5. RTHTGEKPYKCTLCGENFVHRSNL [S19V]  2.51
6. RTHTGEKPYKCTLCGQNFSHRSNL [E16Q]  2.46
7. RTHTGEKPYKCTLCGEWFSHRSNL [N17W]  2.42
8. RTHTGEKPYKCTLCGEEFSHRSNL [N17E]  2.4
9. RTHTGEKPYKCTLCGENSSHRSNL [F18S]  2.37
10. RTHTGEKPYKCTLCGENFSSRSNL [H20S]  2.32
11. RTHTGEKPYKCTLCGFNFSHRSNL [E16F]  2.3
12. RTHTGEKPYKCTLCGENGSHRSNL [F18G]  2.29
13. RTHTGEKPYKCTLCGENFEHRSNL [S19E]  2.29
14. RTHTGEKPYKCTLCGENDSHRSNL [F18D]  2.27
15. RTHTGEKPYKCTLCGEIFSHRSNL [N17I]  2.26
16. RTHTGEKPYKCTLCGEKFSHRSNL [N17K]  2.26
17. RTHTGEKPYKCTLCGENFSQRSNL [H20Q]  2.26
18. RTHTGEKPYKCTLCGECFSHRSNL [N17C]  2.25
19. RTHTGEKPYKCTLCGENESHRSNL [F18E]  2.22
20. RTHTGEKPYKCTLCGENFAHRSNL [S19A]  2.21
21. RTHTGEKPYKCTLCGENFDHRSNL [S19D]  2.21
22. RTHTGEKPYKCTLCGENPSHRSNL [F18P]  2.19
23. RTHTGEKPYKCTLCGVNFSHRSNL [E16V]  2.17
24. RTHTGEKPYKCTLCGENISHRSNL [F18I]  2.17
25. RTHTGEKPYKCTLCGEHFSHRSNL [N17H]  2.15
26. RTHTGEKPYKCTLCGENRSHRSNL [F18R]  2.15
27. RTHTGEKPYKCTLCGEGFSHRSNL [N17G]  2.12
28. RTHTGEKPYKCTLCGENFFHRSNL [S19F]  2.12
29. RTHTGEKPYKCTLCGENFSTRSNL [H20T]  2.11
30. RTHTGEKPYKCTLCGENQSHRSNL [F18Q]  2.1
31. RTHTGEKPYKCTLCGERFSHRSNL [N17R]  2.09
32. RTHTGEKPYKCTLCGENNSHRSNL [F18N]  2.09
33. RTHTGEKPYKCTLCGENFQHRSNL [S19Q]  2.09
34. RTHTGEKPYKCTLCGYNFSHRSNL [E16Y]  2.08
35. RTHTGEKPYKCTLCGENFNHRSNL [S19N]  2.08
36. RTHTGEKPYKCTLCGEFFSHRSNL [N17F]  2.07
37. RTHTGEKPYKCTLCGENWSHRSNL [F18W]  2.07
38. RTHTGEKPYKCTLCGENFCHRSNL [S19C]  2.06
39. RTHTGEKPYKCTLCGENFSARSNL [H20A]  2.06
40. RTHTGEKPYKCTLCGENFSERSNL [H20E]  2.04
41. RTHTGEKPYKCTLCGENFSIRSNL [H20I]  2.04
42. RTHTGEKPYKCTLCGRNFSHRSNL [E16R]  2.03
43. RTHTGEKPYKCTLCGENFSCRSNL [H20C]  2.03
44. RTHTGEKPYKCTLCGENFSLRSNL [H20L]  2.03
45. RTHTGEKPYKCTLCGESFSHRSNL [N17S]  2.02
46. RTHTGEKPYKCTLCGENFRHRSNL [S19R]  2.01
47. RTHTGEKPYKCTLCGSNFSHRSNL [E16S]  1.99
48. RTHTGEKPYKCTLCGEAFSHRSNL [N17A]  1.99
49. RTHTGEKPYKCTLCGCNFSHRSNL [E16C]  1.98
50. RTHTGEKPYKCTLCGELFSHRSNL [N17L]  1.98
51. RTHTGEKPYKCTLCGENFSMRSNL [H20M]  1.98
52. RTHTGEKPYKCTLCGENFYHRSNL [S19Y]  1.97
53. RTHTGEKPYKCTLCGENLSHRSNL [F18L]  1.96
54. RTHTGEKPYKCTLCGENFGHRSNL [S19G]  1.96
55. RTHTGEKPYKCTLCGENFMHRSNL [S19M]  1.96
56. RTHTGEKPYKCTLCGENTSHRSNL [F18T]  1.95
57. RTHTGEKPYKCTLCGENFSNRSNL [H20N]  1.95
58. RTHTGEKPYKCTLCGPNFSHRSNL [E16P]  1.94
59. RTHTGEKPYKCTLCGENFSRRSNL [H20R]  1.94
60. RTHTGEKPYKCTLCGDNFSHRSNL [E16D]  1.93
61. RTHTGEKPYKCTLCGEVFSHRSNL [N17V]  1.92
62. RTHTGEKPYKCTLCGENFSGRSNL [H20G]  1.92
63. RTHTGEKPYKCTLCGEQFSHRSNL [N17Q]  1.91
64. RTHTGEKPYKCTLCGEYFSHRSNL [N17Y]  1.91
65. RTHTGEKPYKCTLCGENYSHRSNL [F18Y]  1.91
66. RTHTGEKPYKCTLCGENFTHRSNL [S19T]  1.91
67. RTHTGEKPYKCTLCGENVSHRSNL [F18V]  1.88
68. RTHTGEKPYKCTLCGHNFSHRSNL [E16H]  1.87
69. RTHTGEKPYKCTLCGMNFSHRSNL [E16M]  1.86
70. RTHTGEKPYKCTLCGENASHRSNL [F18A]  1.86
71. RTHTGEKPYKCTLCWENFSHRSNL [G15W]  1.84
72. RTHTGEKPYKCTLCGENFSDRSNL [H20D]  1.84
73. RTHTGEKPYKCTLCGINFSHRSNL [E16I]  1.83
74. RTHTGEKPYKCTLCYENFSHRSNL [G15Y]  1.82
75. RTHTGEKPYKCTLCGENMSHRSNL [F18M]  1.82
76. RTHTGEKPYKCTLCGENFSPRSNL [H20P]  1.82
77. RTHTGEKPYKCTLCGEPFSHRSNL [N17P]  1.81
78. RTHTGEKPYKCTLCGENFLHRSNL [S19L]  1.81
79. RTHTGEKPYKCTLCGANFSHRSNL [E16A]  1.8
80. RTHTGEKPYKCTLCGENFSKRSNL [H20K]  1.8
81. RTHTGEKPYKCTLCGNNFSHRSNL [E16N]  1.77
82. RTHTGEKPYKCTLCGWNFSHRSNL [E16W]  1.77
83. RTHTGEKPYKCTLCGENFPHRSNL [S19P]  1.77
84. RTHTGEKPYKCTLCGEMFSHRSNL [N17M]  1.76
85. RTHTGEKPYKCTLCGENKSHRSNL [F18K]  1.74
86. RTHTGEKPYKCTLCGENFWHRSNL [S19W]  1.74
87. RTHTGEKPYKCTLCGEDFSHRSNL [N17D]  1.7
88. RTHTGEKPYKCTLCGGNFSHRSNL [E16G]  1.68
89. RTHTGEKPYKCTLCGENFSFRSNL [H20F]  1.67
90. RTHTGEKPYKCTLCGENFKHRSNL [S19K]  1.66
91. RTHTGEKPYKCTLCGETFSHRSNL [N17T]  1.6
92. RTHTGEKPYKCTLCGKNFSHRSNL [E16K]  1.59
93. RTHTGEKPYKCTLCGLNFSHRSNL [E16L]  1.5
94. RTHTGEKPYKCTLCGENFHHRSNL [S19H]  1.48

From the supplement of paper PMC10567573
